Tests used:
[1] = test system: O=C[C@H](O)[C@H](O)COP(=O)(O)O; test: purified protein, by the assay type; settings: other: 1.5 mM PEP, 37° C., pH 7.5
Procedure: (§1) To examine their functional properties, the recombinant DHS enzymes of Brachypodium were produced and characterized in vitro.
(§2) All DHS effectors tested were included in the initial reaction mixtures at a concentration of 0.5 mM, except for IC50 determination for arogenate and tryptophan, in which variable concentrations were used. To ensure at least 10 minutes of linear reaction, enzyme mass per reaction was carefully adjusted to between 100 to 300 ng (depending on the specific activity of each specific isoform) using DHS storage buffer supplemented with BSA. […] The enzymatic reaction was started with the addition of E4P (variable concentration, see below).
(§3) The DHS assay for UHPLC-MS quantification was set up using the same settings as described in the previous paragraph for the UV-based DHS assay, which guaranteed at least 10 minutes of reaction linearity. After a 10-minute incubation, 20 μL of the reactions (out of a total volume of 50 μL) were mixed into 80 μL of methanol, vortexed and transferred to vials for injection. Analysis of DAHP by UHPLC-MS was conducted using the same chromatographic settings as described for the UHPLC-MS analysis of soluble metabolites and compared with an authentic DAHP standard (Sta. Cruz biotechnology, cat. no. sc-216432).
C=C(OP(=O)(O)O)C(=O)O = test: purified protein, by the assay type; settings: other: 2 mM E4P, 37° C., pH 7.5
[2] = test system: O=C[C@H](O)[C@H](O)COP(=O)(O)O; test: DHS activity: kinetics and effector inhibition; assay type: biochemical, Brachypodium distachyon; settings: other: 1.5 mM PEP, 37° C., pH 7.5
Procedure: as §1, §2, §3

Sequence of Brachypodium distachyon BdDHS1a, SEQ ID NO: 1, recombinant (Brachypodium distachyon) (chain, as listed by the source): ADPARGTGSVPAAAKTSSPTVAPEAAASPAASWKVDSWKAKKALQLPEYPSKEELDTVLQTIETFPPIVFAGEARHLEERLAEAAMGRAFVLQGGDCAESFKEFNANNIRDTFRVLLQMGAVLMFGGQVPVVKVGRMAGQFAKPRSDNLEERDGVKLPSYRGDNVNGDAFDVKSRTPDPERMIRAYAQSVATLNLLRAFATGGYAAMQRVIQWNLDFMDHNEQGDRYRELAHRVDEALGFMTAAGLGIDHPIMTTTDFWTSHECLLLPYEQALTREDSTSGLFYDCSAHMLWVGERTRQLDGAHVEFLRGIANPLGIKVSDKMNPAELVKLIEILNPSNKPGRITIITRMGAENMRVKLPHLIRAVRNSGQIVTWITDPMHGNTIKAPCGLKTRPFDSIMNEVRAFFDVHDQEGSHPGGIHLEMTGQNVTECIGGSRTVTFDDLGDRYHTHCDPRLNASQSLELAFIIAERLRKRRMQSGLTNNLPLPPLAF
Sequence of Brachypodium distachyon BdDHS1b, SEQ ID NO: 3, recombinant (Brachypodium distachyon) (chain, as listed by the source): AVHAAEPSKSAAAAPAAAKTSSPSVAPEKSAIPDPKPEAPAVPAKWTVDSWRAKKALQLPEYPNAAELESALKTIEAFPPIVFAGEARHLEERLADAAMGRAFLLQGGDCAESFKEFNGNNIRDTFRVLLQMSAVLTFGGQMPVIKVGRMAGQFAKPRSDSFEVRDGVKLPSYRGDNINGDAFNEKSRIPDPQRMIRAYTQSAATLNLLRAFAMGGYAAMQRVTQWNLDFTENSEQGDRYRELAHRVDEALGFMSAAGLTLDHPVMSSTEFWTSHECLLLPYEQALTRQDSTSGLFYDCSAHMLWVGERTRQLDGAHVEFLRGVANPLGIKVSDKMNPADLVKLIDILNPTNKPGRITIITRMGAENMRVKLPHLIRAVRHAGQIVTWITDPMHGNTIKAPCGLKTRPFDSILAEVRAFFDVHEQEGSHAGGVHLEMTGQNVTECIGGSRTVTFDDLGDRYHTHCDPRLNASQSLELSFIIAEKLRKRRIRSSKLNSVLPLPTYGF
Sequence of Brachypodium distachyon BdDHS2, SEQ ID NO: 5, recombinant (Brachypodium distachyon) (chain, as listed by the source): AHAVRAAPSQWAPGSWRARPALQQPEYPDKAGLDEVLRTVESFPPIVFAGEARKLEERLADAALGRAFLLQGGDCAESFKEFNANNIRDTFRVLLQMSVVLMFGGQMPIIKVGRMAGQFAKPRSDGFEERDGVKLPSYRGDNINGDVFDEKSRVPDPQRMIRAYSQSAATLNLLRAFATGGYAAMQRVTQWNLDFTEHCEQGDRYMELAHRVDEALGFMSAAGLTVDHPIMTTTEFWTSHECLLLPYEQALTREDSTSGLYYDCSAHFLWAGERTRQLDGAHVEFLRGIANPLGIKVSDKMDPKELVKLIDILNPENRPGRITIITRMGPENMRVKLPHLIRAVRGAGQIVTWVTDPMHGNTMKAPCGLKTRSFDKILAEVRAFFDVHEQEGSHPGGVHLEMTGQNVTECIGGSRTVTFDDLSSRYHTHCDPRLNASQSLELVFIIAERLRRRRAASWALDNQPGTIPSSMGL

Row | Substance | K0.5 [1] [mM] | kcat [1] [s⁻¹] | Km (C=C(OP(=O)(O)O)C(=O)O) [µM] | kcat (C=C(OP(=O)(O)O)C(=O)O) [s⁻¹] | kcat/Km (C=C(OP(=O)(O)O)C(=O)O) [M⁻¹ s⁻¹] | K0.5 [2] [mM] | kcat [2] [s⁻¹]
1 | Brachypodium distachyon BdDHS1a, SEQ ID NO: 1, recombinant (Brachypodium distachyon) | 0.55 | 17 | 130 | 17 | 126000 |  | 
2 | Brachypodium distachyon BdDHS1b, SEQ ID NO: 3, recombinant (Brachypodium distachyon) |  |  | 200 | 11.3 | 57200 |  | 
3 | Brachypodium distachyon BdDHS2, SEQ ID NO: 5, recombinant (Brachypodium distachyon) |  |  | 190 | 5.6 | 29000 | 0.51 | 5.6

From patent US20250115926A1, “DEREGULATED DHS AND TYRA ENZYMES OF GRASSES ENABLE EFFICIENT PRODUCTION OF BOTH TYROSINE AND PHENYLALANINE” (priority 2023, published 2025)
